Reference: patent US20220033485A1 (TEIJIN PHARMA, published 2022)
Substitutions are numbered along the chain they refer to. Numbers in names are those of the source.

B1: anti-IGF-I receptor humanized antibody R11-16B (antibody, human IgG4, V domains shown)
VH: QVQLVQPGAELVKPGASVKVSCKAPGYTFTSYWMHWVRQAPGQGLEWIGETNPSNSVTNYNEKFKSKATLTVDTSTSTVYMELSSLRSEDTAVYYCTIGRGRGFAYWGQGTLVTVSS
VL: DIQMTQSPSSLSASVGDRVTITCRASQNINFWLSWYQQKPGKAPKLLIYKASNLHTGVPSRFSGSGSGTDFTFTISSLQPEDIATYYCLQGQSYPYTFGQGTKLEIK
notes: Heavy chain constant region: human IgG4 S228P variant; Expressed in Expi293, protein A purified; also called R11-16B antibody; R11-16VH + R11-16VL-C36Y
B2: anti-IGF-I receptor humanized antibody R11-16E (antibody, human IgG4, V domains shown)
VH: B1 VH
VL: B1 VL with Y36F
notes: also called R11-16E antibody; R11-16VH + R11-16VL-C36F
B3: anti-IGF-I receptor humanized antibody R11-16D (antibody, human IgG4, V domains shown)
VH: B1 VH
VL: B1 VL with Y36S
notes: also called R11-16D antibody; R11-16VH + R11-16VL-C36S
B4: anti-IGF-I receptor humanized antibody R11-16F (antibody, human IgG4, V domains shown)
VH: B1 VH
VL: B1 VL with Y36C
notes: also called R11-16F antibody; R11-16VH + R11-16VL-C36
B5: anti-IGF-I receptor humanized antibody R11-16C (antibody, human IgG4, V domains shown)
VH: B1 VH
VL: B1 VL with Y36A
notes: also called R11-16C antibody; R11-16VH + R11-16VL-C36A

Biological target: T1, human IGF-I receptor (human, UniProt P08069 31-1367)
T1 sequence (P08069 31-1367 limits assumed): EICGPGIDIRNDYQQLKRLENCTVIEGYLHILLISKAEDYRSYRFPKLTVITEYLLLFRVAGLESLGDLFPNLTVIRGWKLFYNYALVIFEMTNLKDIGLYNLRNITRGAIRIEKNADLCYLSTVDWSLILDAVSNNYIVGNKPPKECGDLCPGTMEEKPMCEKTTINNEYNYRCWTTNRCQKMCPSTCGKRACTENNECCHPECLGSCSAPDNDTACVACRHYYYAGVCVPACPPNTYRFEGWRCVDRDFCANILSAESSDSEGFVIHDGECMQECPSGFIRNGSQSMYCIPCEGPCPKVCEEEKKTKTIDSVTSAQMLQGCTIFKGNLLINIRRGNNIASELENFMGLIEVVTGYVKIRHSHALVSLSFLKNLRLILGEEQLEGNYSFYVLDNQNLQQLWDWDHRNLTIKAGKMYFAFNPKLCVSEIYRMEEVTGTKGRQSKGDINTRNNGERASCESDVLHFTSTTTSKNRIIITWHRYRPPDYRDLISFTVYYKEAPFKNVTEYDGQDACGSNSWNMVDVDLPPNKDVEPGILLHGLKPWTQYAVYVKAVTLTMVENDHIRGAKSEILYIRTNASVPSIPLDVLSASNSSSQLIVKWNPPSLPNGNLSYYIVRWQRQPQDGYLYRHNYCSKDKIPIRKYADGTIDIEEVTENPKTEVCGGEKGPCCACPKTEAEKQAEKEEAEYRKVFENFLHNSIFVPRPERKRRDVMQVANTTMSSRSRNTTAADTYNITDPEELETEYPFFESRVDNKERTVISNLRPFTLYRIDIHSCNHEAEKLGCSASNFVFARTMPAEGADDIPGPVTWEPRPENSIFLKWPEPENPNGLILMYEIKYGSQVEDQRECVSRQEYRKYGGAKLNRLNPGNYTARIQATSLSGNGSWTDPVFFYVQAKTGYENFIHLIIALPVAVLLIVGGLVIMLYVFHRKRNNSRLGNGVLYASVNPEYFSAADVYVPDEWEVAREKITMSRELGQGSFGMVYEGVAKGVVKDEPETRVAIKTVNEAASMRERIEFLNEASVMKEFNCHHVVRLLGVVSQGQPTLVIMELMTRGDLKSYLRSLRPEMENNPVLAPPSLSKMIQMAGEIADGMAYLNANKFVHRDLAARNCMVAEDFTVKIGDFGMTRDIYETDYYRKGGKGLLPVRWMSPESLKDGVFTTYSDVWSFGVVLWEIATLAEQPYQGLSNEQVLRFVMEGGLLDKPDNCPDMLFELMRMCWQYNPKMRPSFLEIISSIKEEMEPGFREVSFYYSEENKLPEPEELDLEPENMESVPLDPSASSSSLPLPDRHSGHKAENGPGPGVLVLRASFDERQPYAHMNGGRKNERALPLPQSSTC
Test: cell-based or functional assay

In order of falling “EC50 of proliferation activity on human myoblast cells” value:
1. B1  2 pM
2. B2  2 pM
3. B3  2 pM
4. B4  2 pM
5. B5  2 pM

Biological target: T1, human IGF-I receptor
Test: cell-based or functional assay
Remark: another data set of the same source

In order of rising “Proliferation activity on human myoblast cells (%), 0.005 nM, Experiment 1” value:
1. B3  144%
2. B4  146%
3. B1  147%
4. B2  150%
5. B5  150%

In order of rising “Proliferation activity on human myoblast cells (%), 0.005 nM, Experiment 2” value:
1. B2  143%
2. B5  143%
3. B1  148%
4. B4  148%
5. B3  149%

In order of rising “Proliferation activity on human myoblast cells (%), 0.5 nM, Experiment 1” value:
1. B3  160%
2. B4  161%
3. B1  164%
4. B2  166%
5. B5  178%

In order of falling “Proliferation activity on human myoblast cells (%), 0.5 nM, Experiment 2” value:
1. B5  172%
2. B3  169%
3. B1  164%
4. B2  164%
5. B4  156%

Biological target: T2, cynomolgus monkey IGF-I receptor (cynomolgus monkey, UniProt P08069 31-1367 (human entry))
T2 construct: Whole entry as named; expressed on HEK293T cells; also called IGF-I receptor of cynomolgus monkey; XP_005560575
T2 sequence (P08069 other isoform, or with tags, fused parts or gaps limits assumed): as the sequence (P08069 31-1367 limits assumed) above, with T188A, S471W, A729V, P738L, E1238D counted along it
Test: cell-based ELISA, 2 nM antibody on HEK293T cells expressing the receptor, A450-A650
Description: (§1) The HEK293T cells cultured for at least one night after the lipofection were added to a 96-well plate (coated with poly-D-lysine) in 4×10⁴ cells/well, and the plate further cultured for at least one night were used in the ELISA.
(§2) In the ELISA, 2 nM humanized antibody solutions in 1% BSA/1% FBS/PBS (100 μL) were added to respective wells and reacted for about one hour at 37° C. The wells were washed three times with a cleaning solution. An HRP conjugate solutions (100 μL) of an anti-human IgG antibody prepared at various concentrations with 1% BSA/1% FBS/PBS was added to the respective wells and reacted for about one hour at 37° C. Each well was washed three times with a cleaning solution. A TMB substrate (100 μL) was added to each well to initiate the reaction. Approximately 30 minutes later, 1M sulfuric acid (100 μL) was added to each well to measure the absorbances at 450 nm and 650 nm and calculate the difference of the values between 450 nm and 650 nm.

In order of falling “Avidity (relative to control HEK293T cells = 1)” value:
1. B2  3.7 fold of control cells
2. B3  3.4 fold of control cells
3. B1  3.3 fold of control cells
4. B4  3.3 fold of control cells
5. B5  3.3 fold of control cells

Biological target: T1, human IGF-I receptor
Test: as above
Description: as §1, §2

In order of falling “Avidity (relative to control HEK293T cells = 1)” value:
1. B2  3.7 fold of control cells
2. B1  3.4 fold of control cells
3. B3  3.4 fold of control cells
4. B4  3.4 fold of control cells
5. B5  3.4 fold of control cells

Biological target: T3, guinea pig IGF-I receptor (guinea pig, UniProt P08069 31-1367 (human entry))
T3 construct: Whole entry as named; expressed on HEK293T cells; also called IGF-I receptor of guinea pig; XP_003475316
T3 sequence (P08069 other isoform, or with tags, fused parts or gaps limits assumed): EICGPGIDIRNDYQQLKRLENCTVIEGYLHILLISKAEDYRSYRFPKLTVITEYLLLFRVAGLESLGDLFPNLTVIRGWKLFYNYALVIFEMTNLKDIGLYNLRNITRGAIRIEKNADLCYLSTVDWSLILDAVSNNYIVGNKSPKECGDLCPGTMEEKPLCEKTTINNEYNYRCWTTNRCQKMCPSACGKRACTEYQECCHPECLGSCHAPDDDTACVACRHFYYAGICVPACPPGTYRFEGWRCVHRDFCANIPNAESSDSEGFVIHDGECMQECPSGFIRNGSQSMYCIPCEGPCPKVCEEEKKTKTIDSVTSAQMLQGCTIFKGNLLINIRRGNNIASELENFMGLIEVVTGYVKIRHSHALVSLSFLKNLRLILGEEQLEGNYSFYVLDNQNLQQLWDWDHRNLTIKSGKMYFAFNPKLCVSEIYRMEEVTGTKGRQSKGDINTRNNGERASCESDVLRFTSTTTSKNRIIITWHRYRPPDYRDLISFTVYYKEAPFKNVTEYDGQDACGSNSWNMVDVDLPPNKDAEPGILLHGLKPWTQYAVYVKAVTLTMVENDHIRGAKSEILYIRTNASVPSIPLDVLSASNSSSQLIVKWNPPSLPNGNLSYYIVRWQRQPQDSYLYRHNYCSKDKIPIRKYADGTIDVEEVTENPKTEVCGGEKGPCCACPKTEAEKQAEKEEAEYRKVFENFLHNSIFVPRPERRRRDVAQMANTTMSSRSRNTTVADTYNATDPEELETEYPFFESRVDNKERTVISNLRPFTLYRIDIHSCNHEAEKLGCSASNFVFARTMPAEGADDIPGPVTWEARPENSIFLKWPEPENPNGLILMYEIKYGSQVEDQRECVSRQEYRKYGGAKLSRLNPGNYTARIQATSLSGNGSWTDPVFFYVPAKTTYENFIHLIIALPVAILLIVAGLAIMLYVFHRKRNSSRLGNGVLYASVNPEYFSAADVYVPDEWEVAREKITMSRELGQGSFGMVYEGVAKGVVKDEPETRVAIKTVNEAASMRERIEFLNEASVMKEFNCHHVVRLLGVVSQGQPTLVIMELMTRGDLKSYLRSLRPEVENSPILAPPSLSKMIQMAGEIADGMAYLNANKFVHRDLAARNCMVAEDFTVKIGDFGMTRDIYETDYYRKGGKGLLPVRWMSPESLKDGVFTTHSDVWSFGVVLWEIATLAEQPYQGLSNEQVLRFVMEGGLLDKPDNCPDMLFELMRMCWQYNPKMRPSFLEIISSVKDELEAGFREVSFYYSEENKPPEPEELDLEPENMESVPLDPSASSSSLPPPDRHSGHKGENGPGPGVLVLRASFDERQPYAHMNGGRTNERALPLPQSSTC
Test: as above
Description: as §1, §2

In order of falling “Avidity (relative to control HEK293T cells = 1)” value:
1. B2  3.4 fold of control cells
2. B1  3.3 fold of control cells
3. B3  3.3 fold of control cells
4. B4  3.3 fold of control cells
5. B5  3.3 fold of control cells

Biological target: T4, rat IGF-I receptor (rat, UniProt P24062 31-1370)
T4 construct: Whole entry as named; expressed on HEK293T cells; also called IGF-I receptor of rat; NP_434694
T4 sequence (P24062 31-1370 limits assumed): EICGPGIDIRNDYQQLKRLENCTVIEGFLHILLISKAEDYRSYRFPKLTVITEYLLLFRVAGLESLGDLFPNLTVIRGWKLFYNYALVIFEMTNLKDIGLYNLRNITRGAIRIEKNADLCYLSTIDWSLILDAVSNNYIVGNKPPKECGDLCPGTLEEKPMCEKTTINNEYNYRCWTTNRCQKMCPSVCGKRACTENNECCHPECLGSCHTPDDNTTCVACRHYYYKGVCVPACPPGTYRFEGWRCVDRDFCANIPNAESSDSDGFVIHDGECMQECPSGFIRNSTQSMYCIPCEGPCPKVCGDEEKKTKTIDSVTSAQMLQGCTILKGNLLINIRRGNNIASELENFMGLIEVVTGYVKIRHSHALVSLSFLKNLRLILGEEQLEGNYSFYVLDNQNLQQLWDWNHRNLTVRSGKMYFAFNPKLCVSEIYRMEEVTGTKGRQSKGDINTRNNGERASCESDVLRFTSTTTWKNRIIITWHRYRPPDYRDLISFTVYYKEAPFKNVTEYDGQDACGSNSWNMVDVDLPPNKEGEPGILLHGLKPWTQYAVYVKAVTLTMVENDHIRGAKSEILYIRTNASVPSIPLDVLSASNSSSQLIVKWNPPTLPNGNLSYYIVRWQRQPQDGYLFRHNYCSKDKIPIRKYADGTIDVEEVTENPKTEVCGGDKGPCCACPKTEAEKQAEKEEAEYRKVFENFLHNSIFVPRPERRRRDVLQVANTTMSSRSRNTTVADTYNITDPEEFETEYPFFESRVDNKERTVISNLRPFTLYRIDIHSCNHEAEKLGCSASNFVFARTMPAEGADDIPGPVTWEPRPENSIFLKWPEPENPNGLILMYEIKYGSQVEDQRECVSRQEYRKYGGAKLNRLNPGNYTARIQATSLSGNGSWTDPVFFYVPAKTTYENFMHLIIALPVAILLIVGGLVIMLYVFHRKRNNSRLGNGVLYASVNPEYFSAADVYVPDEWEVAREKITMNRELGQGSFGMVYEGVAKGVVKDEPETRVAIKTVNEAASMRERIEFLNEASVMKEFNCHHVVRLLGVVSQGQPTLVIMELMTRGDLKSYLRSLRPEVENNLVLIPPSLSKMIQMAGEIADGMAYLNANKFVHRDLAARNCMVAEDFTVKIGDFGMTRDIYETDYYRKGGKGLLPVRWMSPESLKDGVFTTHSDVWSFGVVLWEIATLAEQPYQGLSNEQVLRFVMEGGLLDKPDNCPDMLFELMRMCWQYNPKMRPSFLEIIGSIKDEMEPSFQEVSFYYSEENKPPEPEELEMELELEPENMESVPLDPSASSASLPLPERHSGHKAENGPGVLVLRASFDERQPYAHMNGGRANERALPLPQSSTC
Test: as above
Description: as §1, §2

In order of rising “Avidity (relative to control HEK293T cells = 1)” value:
1. B1  0.8 fold of control cells
2. B2  0.8 fold of control cells
3. B3  0.9 fold of control cells
4. B4  0.9 fold of control cells
5. B5  0.9 fold of control cells

Biological target: T5, Substitute 2 of CR domain (human IGF-I receptor G315S, S316T, C-terminal FLAG tag) (human, UniProt P08069 31-1367)
T5 construct: Expressed on 293T cells, formalin fixed; also called substitute 2 receptor
Test: cell-based ELISA, 5 nM R11-16B on fixed 293T cells expressing the FLAG-tagged receptor; Mock cells gave 0.328
Description: (§3) 293T cells were seeded in 10-cm dishes coated with poly-D-lysine in 6×10⁶ cells. On the next day, each plasmid DNA was introduced into the cells by lipofection. Two days later, the 293T cells were released with 0.05% trypsin/EDTA and suspended in the culture medium. The 293T cells were added to a 96-well plate (coated with poly-D-lysine) in 2×10⁴ cells/well and incubated overnight at 37° C. under 5% CO₂. The medium was removed from the 96-well plate. The plate was fixed with 10% buffered formalin (Mildform® 10NM, Wako), replaced by a blocking buffer (3% BSA/PBS/0.02% sodium azide), and used for the ELISA.
(§4) Each well was washed two times with a cleaning solution. A 2500-fold diluted solution of an anti-human IgG antibody ALP conjugate solution (2087-04, Southern Biotech) in the blocking buffer (50 μL) was added to each well and reacted for about one hour at room temperature. Each well was washed three times with a cleaning solution. A pNPP substrate (100 μL) was added to each well to initiate the reaction. The absorbances at 405 nm and 550 nm were measured after about one hour.

For B1, the “Avidity (absorbance, R11-16B added minus not added)” value was 0.308 absorbance.

Biological target: T6, wild-type human IGF-I receptor with C-terminal FLAG tag (human, UniProt P08069 31-1367)
T6 construct: Expressed on 293T cells, formalin fixed; also called positive control
Test: as above
Description: as §3, §4

For B1, the “Avidity (absorbance, R11-16B added minus not added)” value was 0.835 absorbance.

Biological target: T7, Substitute 1 of CR domain (human IGF-I receptor D245N, A247T, E294D, C-terminal FLAG tag) (human, UniProt P08069 31-1367)
T7 construct: Expressed on 293T cells, formalin fixed; also called substitute 1 receptor
Test: as above
Description: as §3, §4

For B1, the “Avidity (absorbance, R11-16B added minus not added)” value was 0.885 absorbance.

Biological target: T4, rat IGF-I receptor
Test: cell-based ELISA on HEK293T cells expressing the receptor
Description: as §1, §2

B1: no binding (tested: 2 nM).
B2: no binding (tested: 2 nM).
B3: no binding (tested: 2 nM).
B4: no binding (tested: 2 nM).
B5: no binding (tested: 2 nM).

Biological target: T5, Substitute 2 of CR domain (human IGF-I …)
Test: cell-based ELISA on fixed 293T cells expressing the substitute receptor
Description: as §3, §4

B1: no binding (tested: 5 nM).
